Test [1] deals with Lge1-CT (Lge1 residues 261–332), intein-chitin binding domain (CBD) tag construct (budding yeast) (UniProt Q02796). Put plainly: SPR; Lge1-CT immobilised on a CM5 chip, Bre1-LR flown over; Biacore 8K, 25°C, 20 mM HEPES (pH 7.5), 200 mM sodium chloride, 0.02% Tween 20.
Test [2] concerns the target Bre1-LR K506E/K510E (budding yeast) (UniProt Q07457). Put plainly: ITC; Lge1-CT (50–60 μM) injected into Bre1-LR (15 μM); 25°C, 20 mM TRIS (pH 7.5), 200 mM sodium chloride.
Test [3] concerns the target Bre1-LR I397K (budding yeast) (UniProt Q07457). The description is as above.
Test [4] addresses Bre1-LR K506E/K510E (budding yeast) (UniProt Q07457). Briefly: ITC; Lge1-CT (50–60 μM) injected into Bre1-LR (15 μM); 25°C, 20 mM TRIS (pH 7.5), 300 mM sodium chloride.
The target of test [5] is Lge1-CT D287K (budding yeast) (UniProt Q02796). Briefly: SPR; Lge1-CT immobilised on a CM5 chip, Bre1-LR flown over; Biacore 8K, 25°C, 20 mM HEPES (pH 7.5), 200 mM sodium chloride, 0.02% Tween 20.
In test [6] the target is Lge1-CT E278K/E282K (budding yeast) (UniProt Q02796). The test is described as above.
In test [7] the target is Lge1-CT D312K (budding yeast) (UniProt Q02796). Described as above.

By Kd is commonly meant the concentration at which binding is half-saturated. Regarding “Bre1-LR D389K/D390K (from UniProt Q07457 227-700) (domain or fragment)”, the dissociation constant Kd in test [1] worked out at 0.0755 µM.
The stoichiometry N is a count of units in the complex or per binding partner. For “Lge1-CT (Lge1 residues 261–332), intein-chitin binding domain (CBD) tag construct (from UniProt Q02796 261-332) (domain or fragment)”, in test [2], the Kd worked out at 0.0419 µM, the dH is -147 kJ/mol and the stoichiometry N is 0.383. In test [3], this substance came in with a Kd of 0.122 µM, a dH of -173 kJ/mol and a stoichiometry N of 0.18. In test [4], this substance had a Kd of 6.72 µM, a dH of -335 kJ/mol and a stoichiometry N of 0.474.
Turning to “Bre1-LR (Bre1 residues 227–700, LBD and RING domains), 6× histidine tag (from UniProt Q07457 227-700) (domain or fragment)”, the Kd is 0.145 µM in test [5], 0.0956 µM in test [6] and 0.0253 µM in test [7].
In test [1], “Bre1-LR I397K (from UniProt Q07457 227-700) (domain or fragment)” showed a dissociation constant (Kd) of 0.0407 µM.

Source of the values: article PMC12802937.
